Data on 2 molecules can be found in patent US20150017665A1, “Peptides and Methods for Detecting MPO-ANCA” (The University of North Carolina at Chapel Hill, priority 2012, published 2015).

The test system of test [1] is mice. The conditions noted are these: Ooi et al. 2012; cited from earlier work.
In test [2] the test system is anti-MPO^447-459 autoantibody. The test is described as follows: Epitope masking ELISA with ceruloplasmin and its fragments. In kind it is binding, human. The settings on record: ELISA. The text has this: (§1) Serum proteins that bound immobilized MPO peptide aa447-459 were eluted and sequenced for identification. […] Sequenced on a 4800 MALDI TOF-TOF, the protein was identified as ceruloplasmin (CP), and confirmed by western blot analysis probed with a rabbit anti-human anti-CP polyclonal antibody (Abeam). Native CP was purchased (Enzo Life Science) and proteolytically digested in vitro by plasmin (Haemtech).
(§2) To isolate the putative serum factor, immobilized MPO aa447-459 peptide was used as bait to fish-out host proteins with binding capacity. […] However, the CP bound to aa447-459 was primarily a 50 kD protein on sodium dodecyl sulfate polyacrylamide gel electrophoresis (SDS-PAGE), while full length CP is 151 kD (FIG. 6D). An anti-ceruloplasmin western blot confirmed the fragment to be a portion of CP (FIG. 6E). To test the role of proteolytic cleavage in generating the blocking factor, a plasmin-generated fragment of CP (Kingston et al., Proc. Natl. Acad. Sci. USA 74:5377 (1977)) was tested for epitope masking capability (FIG. 6F).
(In general: An ELISA detects its analyte on a solid surface through an enzyme-linked reagent.)

Test [3] relates to MPO-ANCA IgG (polyclonal). As to the kind of experiment: Effect of CP on binding of polyclonal MPO-ANCA Ig to native MPO (ELISA). Also on record: species or system human. The settings on record: MPO-ANCA IgG from four patients.
Text: as §2

The target of test [4] is T1, MPO peptide aa447-459 (Homo sapiens, UniProt P05164).
T1 construct: made in house; host or cells: chemical synthesis (a peptide core is named only for the ELISA peptides)
As to the kind of experiment: Serum proteins binding to immobilized MPO peptide aa447-459. The settings on record: identified by mass spectrometry.
Text: as §1, §2

With “PRWNGEKLYQEARKIVGAMV (listed as Homo sapiens) [murine MPO peptide aa409-428]”, the induction of glomerulonephritis result in test [1] is reported as “induces glomerulonephritis in mice”.

B1: full length CP: full length ceruloplasmin, 151 kD, purchased (Enzo Life Science) (protein)
chain: KEKHYYIGIIETTWDYASDHGEKKLISVDTEHSNIYLQNGPDRIGRLYKKALYLQYTDETFRTTIEKPVWLGFLGPIIKAETGDKVYVHLKNLASRPYTFHSHGITYYKEHEGAIYPDNTTDFQRADDKVYPGEQYTYMLLATEEQSPGEGDGNCVTRIYHSHIDAPKDIASGLIGPLIICKKDSLDKEKEKHIDREFVVMFSVVDENFSWYLEDNIKTYCSEPEKVDKDNEDFQESNRMYSVNGYTFGSLPGLSMCAEDRVKWYLFGMGNEVDVHAAFFHGQALTNKNYRIDTINLFPATLFDAYMVAQNPGEWMLSCQNLNHLKAGLQAFFQVQECNKSSSKDNIRGKHVRHYYIAAEEIIWNYAPSGIDIFTKENLTAPGSDSAVFFEQGTTRIGGSYKKLVYREYTDASFTNRKERGPEEEHLGILGPVIWAEVGDTIRVTFHNKGAYPLSIEPIGVRFNKNNEGTYYSPNYNPQSRSVPPSASHVAPTETFTYEWTVPKEVGPTNADPVCLAKMYYSAVEPTKDIFTGLIGPMKICKKGSLHANGRQKDVDKEFYLFPTVFDENESLLLEDNIRMFTTAPDQVDKEDEDFQESNKMHSMNGFMYGNQPGLTMCKGDSVVWYLFSAGNEADVHGIYFSGNTYLWRGERRDTANLFPQTSLTLHMWPDTEGTFNVECLTTDHYTGGMKQKYTVNQCRRQSEDSTFYLGERTYYIAAVEVEWDYSPQREWEKELHHLQEQNVSNAFLDKGEFYIGSKYKKVVYRQYTDSTFRVPVERKAEEEHLGILGPQLHADVGDKVKIIFKNMATRPYSIHAHGVQTESSTVTPTLPGETLTYVWKIPERSGAGTEDSACIPWAYYSTVDQVKDLYSGLIGPLIVCRRPYLKVFNPRRKLEFALLFLVFDENESWYLDDNIKTYSDHPEKVNKDDEEFIESNKMHAINGRMFGNLQGLTMHVGDEVNWYLMGMGNEIDLHTVHFHGHSFQYKHRGVYSSDVFDIFPGTYQTLEMFPRTPGIWLLHCHVTDHIHAGMETTYTVLQNEDTKSG
As to B1, the epitope masking capability entry is listed as “did not” in test [2] and “did not mask the epitope” in test [2] (listed as full-length CP). Moreover, the “effect on binding of polyclonal MPO-ANCA Ig to native MPO” value in test [3] is given as “unaffected”. Moreover, the “binding to immobilized MPO aa447-459 peptide” value in test [4] is reported as “identified by mass spectrometry as a binding partner”.
